Test results taken from publication PMC5300068, “Flexibility in Mannan-Binding Lectin-Associated Serine Proteases-1 and -2 Provides Insight on Lectin Pathway Activation” (Structure(London, England:1993), 2017).

Target: the molecule itself
Experiment: AUC; sedimentation velocity, 50,000 rpm, absorbance optics, c(s) analysis; physiological ionic strength, buffers with Ca2+ or EDTA; 0.8-2.2 uM for full-length MASPs; dimer to monomers

B1: rat MASP-2 CUB1-EGF-CUB2 (MASP-2 3D) (domain or fragment)
chain: SKWPEPVFGRLVSLGFPEKYGNHQDRSWTLTAPPGFRLRLYFTHFNLELSYRCEYDFVKLTSGTKVLATLCGQESTDTERAPGNDTFYSLGPSLKVTFHSDYSNEKPFTGFEAFYAAEDVDECRTSLGDSVPCDHYCHNYLGGYYCSCRVGYILHQNKHTCSALCSGQVFTGRSGFLSSPEYPQPYPKLSSCAYNIRLEEGFSITLDFVESFDVEMHPEAQCPYDSLKIQTDKREYGPFCGKTLPPRIETDSNKVTITFTTDESGNHTGWKIHYTSTAQP
modifications: N-glycosylated (glycosylation sites shown in Figure 1)
notes: Homodimer; production details are in the Supplemental Information; source: Chinese hamster ovary cells, purified (gel filtration, Superdex 200 16/60); not shown: His6, C-terminal, kept
stoichiometry N: 2
